From PMC2636891, “Two Highly Conserved Cysteine Residues in HPV16 L2 Form an Intramolecular Disulfide Bond and Are Critical for Infectivity in Human Keratinocytes” (PLoS ONE, 2009)
Numbering of substitutions follows the chain as printed. Names and notes keep the numbering of the source.

T1: HPV16 major capsid protein L1 (human papillomavirus type 16, UniProt P03101 1-505, disulfide-linked to other L1 chains in the virions)
T1 construct: major capsid protein L1 of human papillomavirus type 16, expressed from the capsid expression plasmid pXULL; Assembled with L2 and the HPV16 genome into virions; source: 293TT, transfected with pXULL (L1 and L2 expression plasmid), in virions purified by CsCl density gradient
T1 sequence: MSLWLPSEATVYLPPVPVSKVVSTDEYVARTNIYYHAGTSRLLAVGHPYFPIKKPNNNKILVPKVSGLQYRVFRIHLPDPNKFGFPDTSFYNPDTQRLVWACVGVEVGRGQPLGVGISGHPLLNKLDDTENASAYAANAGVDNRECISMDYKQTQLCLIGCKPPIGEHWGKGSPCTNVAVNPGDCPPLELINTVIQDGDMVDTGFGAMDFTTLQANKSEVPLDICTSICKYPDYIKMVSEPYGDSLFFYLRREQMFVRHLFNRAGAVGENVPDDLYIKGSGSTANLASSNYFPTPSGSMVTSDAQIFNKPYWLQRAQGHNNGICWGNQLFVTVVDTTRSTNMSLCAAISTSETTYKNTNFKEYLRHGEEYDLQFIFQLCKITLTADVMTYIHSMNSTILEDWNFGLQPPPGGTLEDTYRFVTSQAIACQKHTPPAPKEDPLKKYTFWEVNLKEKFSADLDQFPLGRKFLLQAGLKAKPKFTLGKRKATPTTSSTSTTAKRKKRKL

B1: HPV16 minor capsid protein L2, wild type (natural protein)
chain: MRHKRSAKRTKRASATQLYKTCKQAGTCPPDIIPKVEGKTIAEQILQYGSMGVFFGGLGIGTGSGTGGRTGYIPLGTRPPTATDTLAPVRPPLTVDPVGPSDPSIVSLVEETSFIDAGAPTSVPSIPPDVSGFSITTSTDTTPAILDINNTVTTVTTHNNPTFTDPSVLQPPTPAETGGHFTLSSSTISTHNYEEIPMDTFIVSTNPNTVTSSTPIPGSRPVARLGLYSRTTQQVKVVDPAFVTTPTKLITYDNPAYEGIDVDNTLYFSSNDNSINIAPDPDFLDIVALHRPALTSRRTGIRYSRIGNKQTLRTRSGKSIGAKVHYYYDLSTIDPAEEIELQTITPSTYTTTSHAASPTSINNGLYDIYADDFITDTSTTPVPSVPSTSLSGYIPANTTIPFGGAYNIPLVSGPDIPINITDQAPSLIPIVPGSPQYTIIADAGDFYLHPSYYMLRKRRKRLPYFFSDVSLAA
modifications: intramolecular disulfide bond C22-C28
notes: minor capsid protein L2 of human papillomavirus type 16, expressed from pXULL; AAD33258 is the entry used for the alignment and gi 4927726 the one searched in mass spectrometry; Assembled with L1 into virions; also called wild type L2; source: 293TT, transfected with pXULL (L1 and L2 expression plasmid), in virions purified by CsCl density gradient
B2: HPV16 L2 C22/28S (natural protein)
chain: B1 chain with C22S, C28S
notes: minor capsid protein L2 of human papillomavirus type 16 with C22S and C28S, expressed from a pXULL variant made by site directed mutagenesis; Assembled with L1 into virions; also called double mutant; source: 293TT, transfected with mutant pXULL, in virions purified by CsCl density gradient
B3: HPV16 L2 C28S (natural protein)
chain: B1 chain with C28S
notes: minor capsid protein L2 of human papillomavirus type 16 with C28S, expressed from a pXULL variant made by site directed mutagenesis; Assembled with L1 into virions; also called single C28S mutant; source: 293TT, transfected with mutant pXULL, in virions purified by CsCl density gradient
B4: HPV16 L2 C22S (natural protein)
chain: B1 chain with C22S
notes: minor capsid protein L2 of human papillomavirus type 16 with C22S, expressed from a pXULL variant made by site directed mutagenesis; Assembled with L1 into virions; also called single C22S mutant; source: 293TT, transfected with mutant pXULL, in virions purified by CsCl density gradient

The binders below were run against T1, HPV16 major capsid protein L1 (assay: co-sedimentation; CsCl-purified virions; SDS-PAGE and Coomassie staining-based densitometry; data not shown). Conditions: partners not purified.

Binder	molecules L2 per virion [molecules L2 per virion]
B1	~22
B2	~22
B3	~22
B4	~22

Biological target: the molecule itself
Test: non-reducing denaturing SDS-PAGE with immunoblot; purified virions reacted with 2 mM NEM for 1.5 h at room temperature, mixed with non-reducing SDS loading buffer (2% SDS), 7.5% gel, immunoblot for L1 and L2; shows only disulfide-linked species
Conditions: not given

Binder	stoichiometry N
B3	2
B4	2
